These results are taken from PMC10397247.

What all share (assay): two-hybrid library CCmax;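 further: natural log of median RNA to DNA barcode read ratio; higher means stronger binding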
The target of assay [1] is T1, 4H2343-AA.
T1 chain: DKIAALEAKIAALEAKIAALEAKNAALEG
To be noted: mean of both orientations.

For assay [2], the target named is T2, 4H3073-AA.
T2 chain: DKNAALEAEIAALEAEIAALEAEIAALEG

In assay [3] the target is T3, 4H3438-AA.
T3 chain: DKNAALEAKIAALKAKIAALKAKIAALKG
To be noted: mean of both orientations.

Assay [4] concerns the target T4, 4H_APH.
T4 chain: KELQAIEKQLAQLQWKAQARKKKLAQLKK
To be noted: mean of both orientations.

In assay [5] the target is T5, 4H452-AA.
T5 chain: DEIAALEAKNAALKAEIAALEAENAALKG
To be noted: mean of both orientations.

For assay [6], the target named is T6, 4H56-AA.
T6 chain: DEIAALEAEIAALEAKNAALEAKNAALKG
To be noted: mean of both orientations.

Assay [7] deals with T7, 4H2592-AA.
T7 chain: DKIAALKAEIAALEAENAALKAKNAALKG
To be noted: mean of both orientations.

In assay [8] the target is T8, 4H_BCR.
T8 chain: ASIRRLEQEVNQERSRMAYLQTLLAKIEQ
Conditions: mean of both orientations.

The target in assay [9] is T9, 4H2124-AA.
T9 chain: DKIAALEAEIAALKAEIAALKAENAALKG

Assay [10] has as its target T10, 4H2253-AA.
T10 chain: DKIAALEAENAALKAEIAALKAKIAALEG
Conditions: mean of both orientations.

Assay [11] has as its target 4H_GCN4. Conditions: mean of both orientations.
Assay [12] addresses T11, 4H2732-AA.
T11 chain: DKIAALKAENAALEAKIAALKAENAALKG
To be noted: mean of both orientations.

The target in assay [13] is T12, 4H3015-AA.
T12 chain: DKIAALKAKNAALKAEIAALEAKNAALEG

Assay [14] deals with T13, 4H347-AA.
T13 chain: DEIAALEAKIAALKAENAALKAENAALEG
Conditions: mean of both orientations.

Assay [15] concerns the target T14, 4H249-AA.
T14 chain: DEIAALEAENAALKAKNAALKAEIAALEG
To be noted: mean of both orientations.

For assay [16], the target named is T15, 4H3001-AA.
T15 chain: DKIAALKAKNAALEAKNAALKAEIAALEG
To be noted: mean of both orientations.

For assay [17], the target named is T16, 4H2774-AA.
T16 chain: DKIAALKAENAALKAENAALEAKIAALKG
Conditions: mean of both orientations.

The target of assay [18] is GCN2_T.
The target of assay [19] is T17, 4H2931-AA.
T17 chain: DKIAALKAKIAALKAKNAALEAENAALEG
Conditions: mean of both orientations.

For assay [20], the target named is T18, 4H2330-AA.
T18 chain: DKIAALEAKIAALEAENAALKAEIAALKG
To be noted: mean of both orientations.

The target of assay [21] is T19, 4H2165-AA.
T19 chain: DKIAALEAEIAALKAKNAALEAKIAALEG
To be noted: mean of both orientations.

Assay [22] has as its target T20, 4H406-AA.
T20 chain: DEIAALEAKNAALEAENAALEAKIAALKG
Conditions: mean of both orientations.

The target in assay [23] is T21, 4H2466-AA.
T21 chain: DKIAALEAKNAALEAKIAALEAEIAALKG
Conditions: mean of both orientations.

Assay [24] addresses T22, APC4436-AA.
T22 chain: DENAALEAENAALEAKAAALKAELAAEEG
To be noted: mean of both orientations.

Assay [25] addresses T23, APC6108-AA.
T23 chain: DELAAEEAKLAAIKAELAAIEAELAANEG
Conditions: mean of both orientations.

Assay [26] deals with T24, APC1434-AA.
T24 chain: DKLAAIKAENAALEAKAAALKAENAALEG
To be noted: mean of both orientations.

For assay [27], the target named is T25, 4H807-AA.
T25 chain: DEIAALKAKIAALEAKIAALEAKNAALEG
To be noted: mean of both orientations.

Assay [28] deals with T26, APC9319-AA.
T26 chain: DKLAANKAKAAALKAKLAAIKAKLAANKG
Conditions: mean of both orientations.

Assay [29] addresses T27, APC4264-AA.
T27 chain: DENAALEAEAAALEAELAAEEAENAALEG
To be noted: mean of both orientations.

The target of assay [30] is T28, APC1015-AA.
T28 chain: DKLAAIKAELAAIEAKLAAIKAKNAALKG
Conditions: mean of both orientations.

Assay [31] deals with T29, APC8191-AA.
T29 chain: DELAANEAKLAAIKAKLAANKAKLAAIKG
To be noted: mean of both orientations.

In assay [32] the target is T30, APC2405-AA.
T30 chain: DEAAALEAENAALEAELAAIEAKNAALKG
To be noted: mean of both orientations.

Assay [33] has as its target T31, APC9096-AA.
T31 chain: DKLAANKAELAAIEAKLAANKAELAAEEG
To be noted: mean of both orientations.

Assay [34] concerns the target T32, APC3645-AA.
T32 chain: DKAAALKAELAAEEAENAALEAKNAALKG
To be noted: mean of both orientations.

Assay [35] concerns the target T33, APC2237-AA.
T33 chain: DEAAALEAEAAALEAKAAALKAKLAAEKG
Conditions: mean of both orientations.

Assay [36] has as its target T34, APC7099-AA.
T34 chain: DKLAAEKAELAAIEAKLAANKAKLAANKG
Conditions: mean of both orientations.

The target in assay [37] is T35, 4H733-AA.
T35 chain: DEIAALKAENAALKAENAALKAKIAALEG
Conditions: mean of both orientations.

In assay [38] the target is T36, 4H716-AA.
T36 chain: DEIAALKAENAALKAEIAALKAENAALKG

In assay [39] the target is T37, APC8910-AA.
T37 chain: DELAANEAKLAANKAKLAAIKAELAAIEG
To be noted: mean of both orientations.

For assay [40], the target named is T38, APC232-AA.
T38 chain: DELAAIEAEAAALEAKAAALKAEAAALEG
Conditions: mean of both orientations.

The target of assay [41] is T39, APC5383-AA.
T39 chain: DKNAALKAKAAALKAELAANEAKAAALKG
To be noted: mean of both orientations.

Assay [42] addresses T40, APC4011-AA.
T40 chain: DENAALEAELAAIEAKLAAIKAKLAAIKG
Conditions: mean of both orientations.

4H_GCN4, sequence (chain, as listed by the source): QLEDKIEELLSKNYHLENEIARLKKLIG

In the case of DKIAALEAEIAALKAEIAALKAENAALKG [4H2124-AA], the interaction score was -0.871 in [1]; 1.36 in assay [2]; -0.0325 in [3]; -1.67 in [4]; -1.95 in [5]; -1.73 in [6]. In addition, the interaction score in assay [7] is -0.666; in assay [8] it was -2.09; in assay [9], 1.61; in [10], -1.14; in assay [11], -1.93; in assay [12], -1.2. Moreover, the interaction score was -1.19 in [13]; -1.2 in assay [14]; -1.78 in assay [15]; -1.89 in [16]; -1.38 in [17]; -1.07 in assay [18]. The interaction score in assay [19] was -1.45; in [20] it was -1.05; in assay [21], -1.36; in assay [22], -1.71; in assay [23], -1.16.

Turning to DEIAALKAENAALKAEIAALKAENAALKG [4H716-AA], the interaction score in assay [24] was -1.65; in [25], -1.47; in [26], -1.53; in [27] it was -1.6; in assay [28], -1.79; in assay [29], -1.35. The interaction score in assay [30] is -1.65; in [31], -1.36; in assay [32], -1; in [33], -1.43; in assay [34], -1.45; in [35], -1.74. The interaction score in assay [36] was -1.6; in assay [37] it was -1.28; in assay [38], 1.49; in assay [39], -1.89; in [40], -1.48; in assay [41], -1.79. In assay [42], this molecule had an interaction score of -1.44.
